Experimental findings from paper PMC9795039, “Kindlin2 enables EphB/ephrinB bi-directional signaling to support vascular development” (Life Science Alliance, 2022) are described below.

The chains are these.
B1: his-tagged human full-length kindlin2 [human] / his/Avi-tagged cytoplasmic tail of ephrinB2 WT [modified: biotinylated; biotinylated] [not stated] (parent complex)
chain 1: MALDGIRMPDGCYADGTWELSVHVTDLNRDVTLRVTGEVHIGGVMLKLVEKLDVKKDWSDHALWWEKKRTWLLKTHWTLDKYGIQADAKLQFTPQHKLLRLQLPNMKYVKVKVNFSDRVFKAVSDICKTFNIRHPEELSLLKKPRDPTKKKKKKLDDQSEDEALELEGPLITPGSGSIYSSPGLYSKTMTPTYDAHDGSPLSPTSAWFGDSALSEGNPGILAVSQPITSPEILAKMFKPQALLDKAKINQGWLDSSRSLMEQDVKENEALLLRFKYYSFFDLNPKYDAIRINQLYEQAKWAILLEEIECTEEEMMMFAALQYHINKLSIMTSENHLNNSDKEVDEVDAALSDLEITLEGGKTSTILGDITSIPELADYIKVFKPKKLTLKGYKQYWCTFKDTSISCYKSKEESSGTPAHQMNLRGCEVTPDVNISGQKFNIKLLIPVAEGMNEIWLRCDNEKQYAHWMAACRLASKGKTMADSSYNLEVQNILSFLKMQHLNPDPQLIPEQITTDITPECLVSPRYLKKYKNKQITARILEAHQNVAQMSLIEAKMRFIQAWQSLPEFGITHFIARFQGGKKEELIGIAYNRLIRMDASTGDAIKTWRFSNMKQWNVNWEIKMVTVEFADEVRLSFICTEVDCKVVHEFIGGYIFLSTRAKDQNESLDEEMFYKLTSGWV
chain 2: KYRRRHRKHSPQHTTTLSLSTLATPKRSGNNNGSEPSDIIIPLRTADSVFCPHYEKVSGDYGHPVYIVQEMPPQSPANIYYKV

This experiment covers variants of B1. Briefly: in vitro binding assay (pulldown on NeutrAvidin beads, Western blot densitometry); purified kindlin2; n = 3; read off a plot.
chain 2 KYRRRHRKHSPQHTTTLSLSTLATPKRSGNNNGSEPSDIIIPLRTADSVFCPHYEKVSGDYGHPVYIVQEMPPQSPAAIYYKV [chain 2 N78A]: the percent of parent is around 107 % WT.

In the case of chain 2 KYRRRHRKHSPQHTTTLSLSTLATPKRSGNNNGSEPSDIIIPLRTADSVFCPHYEKVSGDYGHPVYIVQEMPPQSPANIYAKV [chain 2 Y81A], the percent of parent was around 61 % WT. The value for chain 2 KYRRRHRKHSPQHTTTLSLSTLATPKRSGNNNGSEPSDIIIPLRTADSVFCPHYEKVSGDYGHPVYIVQEMPPQSPAAIYAKV [chain 2 N78A, chain 2 Y81A] was around 36 % WT. The value for chain 2 KYRRRHRKHSPQHTTTLSLSTLATPKRSGNNNGSEPSDIIIPLRTADSVFCPHYEKVSGDYGHPVYIVQEMPPQSPAAAAAKV [chain 2 N78A, chain 2 I79A, chain 2 Y80A, chain 2 Y81A] was around 14 % WT. The value for chain 2 KYRRRHRKHSPQHTTTLSLSTLATPKRSGNNNGSEPSDIIIPLRTADSVFCPHYEKVSGDYGHPVYIVQEMPPQAPANIYYKV [chain 2 S75A] was around 105 % WT.
